Results on one substance are retold here after patent US12583895B2, “Polypeptides for restoring endothelial function and methods of use thereof” (Vanderbilt University, priority 2019, dated 2026).

“Also recorded” adds a separate entry of the source. Non-standard residues stand in square brackets, D forms with d. No end group written: not given here. pS = N[C@@H](COP(=O)(O)O)C(=O)O

One test has as its system p38 MAPK phosphorylation. Put plainly: p38 MAPK phosphorylation (Western blot) in anisomycin-treated rat aorta. It counts as cell-based. Particulars: NiPp 500 μM 30 min pretreatment, then anisomycin 200 μM 1 h, immunoblot. As for the experimental part: RA rings were suspended in a muscle bath and incubated with either buffer alone (Ctrl), Aniso (200 μM) for 1 h, or NiPp (500 μM) for 30 min followed by Aniso (200 μM) for 1 h. […] Proteins were extracted […] immunoblotted to examine p38MAPK phosphorylation. Quantification of relative phosphorylation to total p38MAPK level is shown. n=10, *p<0.05 in one-way ANOVA with Tukey post-test. NiPp restores endothelial dysfunction and reduced p38 MAPK phosphorylation induced by anisomycin in RA.
RA rings were suspended in a muscle bath and incubated with either buffer alone (Ctrl), Aniso (200 μM) for 1 h, or NiPp (500 μM) for 30 min followed by Aniso (200 μM) for 1 h. […] The force generated was determined and was adjusted to the weight and length of the tissue. […] Proteins were extracted and phosphorylation of p38 MAPK was determined by Western blot analysis. […] Data are expressed as mean±SD.
p38 MAPK activation with Anisomycin. […] After treatments, endothelial-dependent relaxation was determined or tissues were snap-frozen for Western blot analysis.
Western blot Analysis. […] The protein-antibody complexes were visualized and quantified using the Odyssey Infrared Imaging System. Phosphorylation was calculated as a ratio of the phosphorylated protein to total protein and was then normalized to the untreated tissues (Ctrl) with the control value set as 1.0.

The next test addresses p38 MAPK β isoform (Homo sapiens, UniProt Q15759). The experiment in a line: SelectScreen kinase profiling. The format is biochemical. Particulars: NiPp 100 μM. How it is done:
(§1) Kinase profiling. NiPp was dissolved in DMSO, screened at a single concentration of 100 μM using in vitro kinase assays (SelectScreen Kinase Profiling Service; ThermoFisher Scientific, Madison WI) including the Z'LYTE and Adapta kinase activity assays and the LanthaScreen Eu Kinase Binding Assay). Candidate interactions were predicted using STRING Version 11 (www.string-db-org) with the human database at confidence=0.7.
(§2) Since NiPp treatment was associated with decreased phosphorylation of p38 MAPK in RA, a mechanism of NiPp function can kinase inhibition. Therefore, a kinase profiling assay was performed to determine the effect of NiPp on the activity of a panel of kinases in vitro. The top two kinases inhibited by NiPp were MSK1 and p38 MAPKα. Inhibition to the p38 MAPKα isoform appeared to be specific as inhibition by NiPp to the other isoforms (β, δ, and γ) in the kinaseprofiling screen were only at 5, 3, and 3% respectively. Despite high sequence homology, the isoforms have difference in tissue expression, upstream kinase activators and downstream substrates. The p38 MAPKα isoform, initially identified as a protein that underwent phosphorylation in response to endotoxin treatment and hyperosmolarity shock, plays a role in endothelial dysfunction in that inhibition of this isoform leads to improved endothelial function in animal models of cardiovascular diseases including cardiac hypertrophy, balloon injury, salt/fat induced hypertension and in hypercholesterolemic patients. The α-isoform is also a key regulator of pro-inflammatory cytokine production and itself can be activated by IL1-β. MSK1, a downstream kinase of the p38 MAPK activation (FIG. 19), has complex cell-dependent roles in inflammatory responses. In endothelial cells, MSK1 promotes CREB activation in response to TNFα.

The next test addresses T1, p38 MAPK γ isoform (Homo sapiens, UniProt P53778).
T1 sequence (P53778 1-367): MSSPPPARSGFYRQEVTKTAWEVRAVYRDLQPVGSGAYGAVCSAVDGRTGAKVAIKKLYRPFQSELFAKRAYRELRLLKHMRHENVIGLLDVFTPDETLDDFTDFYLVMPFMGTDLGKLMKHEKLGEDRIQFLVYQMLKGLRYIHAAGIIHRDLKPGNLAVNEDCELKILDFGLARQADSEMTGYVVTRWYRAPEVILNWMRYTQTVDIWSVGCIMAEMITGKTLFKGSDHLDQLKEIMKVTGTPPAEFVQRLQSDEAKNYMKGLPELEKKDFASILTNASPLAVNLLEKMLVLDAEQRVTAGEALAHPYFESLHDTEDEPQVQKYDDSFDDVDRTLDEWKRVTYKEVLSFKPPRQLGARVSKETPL
The experiment in a line: SelectScreen kinase profiling. It counts as biochemical. Particulars: NiPp 100 μM. As for the experimental part:
as §1, §2

Another test addresses PIK3R3 kinase (Homo sapiens, UniProt Q92569). The experiment in a line: SelectScreen kinase profiling. As to conditions: NiPp 100 μM; kinases inhibited at >40% are listed. It counts as biochemical. How it is done: as §1
(§3) As injury leads to increased p38 MAPK phosphorylation and decreased Niban phosphorylation, one of the mechanisms by which NiPp restores function after endothelial injury can be kinase inhibition. A kinase profiling was performed using three different profiling platforms that measure activity and kinase/substrate binding. Kinases of which activity or substrate binding were inhibited by NiPp (100 μM) at >40% are listed and shown in a kinase dendrogram (FIGS. 14A, 14B, 19A and 19B).
(§4) The top two candidate kinase targets of NiPp were mitogen- and stress-activated kinase 1 (MSK1; also known as RPS6KA5) and p38 MAPKα (MAPK14), which were inhibited by 66% and 61%, respectively. MSK1 is an AGC kinase of the RSK family that is phosphorylated by ERK and p38 MAPK in response to cellular stress. Other kinases inhibited by the NiPp include CKD18 of the CMGC kinase family), FGFR1 of the TK family, and the PIK3R3 kinase (FIGS. 19A and 19B).

For the next test, the target named is CKD18 (Homo sapiens, UniProt Q07002). Put plainly: SelectScreen kinase profiling. The format is biochemical. As to conditions: NiPp 100 μM; kinases inhibited at >40% are listed. How it is done:
as §1, §3, §4

The target in another test is FGFR1 (Homo sapiens, UniProt P11362). Put plainly: SelectScreen kinase profiling. The format is biochemical. Particulars: NiPp 100 μM; kinases inhibited at >40% are listed. As for the experimental part:
as §1, §3, §4

Sequence of p38 MAPK β isoform (Q15759 whole entry, canonical isoform): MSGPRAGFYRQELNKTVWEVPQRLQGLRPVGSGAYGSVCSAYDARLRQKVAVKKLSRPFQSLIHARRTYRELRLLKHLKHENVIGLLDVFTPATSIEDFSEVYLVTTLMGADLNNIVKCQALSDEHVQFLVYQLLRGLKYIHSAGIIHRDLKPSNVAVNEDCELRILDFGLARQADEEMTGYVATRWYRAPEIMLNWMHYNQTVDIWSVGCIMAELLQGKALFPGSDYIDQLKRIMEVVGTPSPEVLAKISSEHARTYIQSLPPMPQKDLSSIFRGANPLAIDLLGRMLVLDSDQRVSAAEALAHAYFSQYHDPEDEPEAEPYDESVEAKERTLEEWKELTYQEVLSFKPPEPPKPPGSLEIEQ
Sequence of PIK3R3 kinase (P42336 whole entry partner): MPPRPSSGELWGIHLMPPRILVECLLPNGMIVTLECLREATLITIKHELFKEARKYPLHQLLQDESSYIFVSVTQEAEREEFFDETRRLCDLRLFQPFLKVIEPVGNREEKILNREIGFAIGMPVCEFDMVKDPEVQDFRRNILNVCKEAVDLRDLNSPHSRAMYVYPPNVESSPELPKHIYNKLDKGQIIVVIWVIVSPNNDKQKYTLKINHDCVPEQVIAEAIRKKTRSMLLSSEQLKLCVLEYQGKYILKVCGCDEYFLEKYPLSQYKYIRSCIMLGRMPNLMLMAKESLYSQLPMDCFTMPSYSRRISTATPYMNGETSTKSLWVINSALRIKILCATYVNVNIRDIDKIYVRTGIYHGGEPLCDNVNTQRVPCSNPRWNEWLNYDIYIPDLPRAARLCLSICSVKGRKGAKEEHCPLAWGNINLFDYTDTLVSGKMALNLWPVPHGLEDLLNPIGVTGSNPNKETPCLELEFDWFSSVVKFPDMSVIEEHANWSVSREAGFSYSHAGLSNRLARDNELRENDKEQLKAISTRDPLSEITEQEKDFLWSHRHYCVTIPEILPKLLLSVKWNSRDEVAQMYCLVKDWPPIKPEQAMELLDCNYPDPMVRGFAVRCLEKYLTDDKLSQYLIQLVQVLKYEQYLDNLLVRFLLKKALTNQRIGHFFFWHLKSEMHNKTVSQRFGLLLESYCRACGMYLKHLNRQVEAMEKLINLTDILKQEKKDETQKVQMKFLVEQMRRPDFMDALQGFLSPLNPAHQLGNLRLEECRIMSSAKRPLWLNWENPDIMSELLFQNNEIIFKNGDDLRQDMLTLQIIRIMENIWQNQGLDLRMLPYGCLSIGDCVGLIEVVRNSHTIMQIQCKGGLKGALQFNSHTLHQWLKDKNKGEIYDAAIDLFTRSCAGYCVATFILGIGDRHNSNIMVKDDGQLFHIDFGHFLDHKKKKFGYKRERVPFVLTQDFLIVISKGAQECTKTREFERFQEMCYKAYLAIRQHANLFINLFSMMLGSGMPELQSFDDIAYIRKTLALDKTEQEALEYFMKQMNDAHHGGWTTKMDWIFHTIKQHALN
Sequence of FGFR1 (P11362 22-822): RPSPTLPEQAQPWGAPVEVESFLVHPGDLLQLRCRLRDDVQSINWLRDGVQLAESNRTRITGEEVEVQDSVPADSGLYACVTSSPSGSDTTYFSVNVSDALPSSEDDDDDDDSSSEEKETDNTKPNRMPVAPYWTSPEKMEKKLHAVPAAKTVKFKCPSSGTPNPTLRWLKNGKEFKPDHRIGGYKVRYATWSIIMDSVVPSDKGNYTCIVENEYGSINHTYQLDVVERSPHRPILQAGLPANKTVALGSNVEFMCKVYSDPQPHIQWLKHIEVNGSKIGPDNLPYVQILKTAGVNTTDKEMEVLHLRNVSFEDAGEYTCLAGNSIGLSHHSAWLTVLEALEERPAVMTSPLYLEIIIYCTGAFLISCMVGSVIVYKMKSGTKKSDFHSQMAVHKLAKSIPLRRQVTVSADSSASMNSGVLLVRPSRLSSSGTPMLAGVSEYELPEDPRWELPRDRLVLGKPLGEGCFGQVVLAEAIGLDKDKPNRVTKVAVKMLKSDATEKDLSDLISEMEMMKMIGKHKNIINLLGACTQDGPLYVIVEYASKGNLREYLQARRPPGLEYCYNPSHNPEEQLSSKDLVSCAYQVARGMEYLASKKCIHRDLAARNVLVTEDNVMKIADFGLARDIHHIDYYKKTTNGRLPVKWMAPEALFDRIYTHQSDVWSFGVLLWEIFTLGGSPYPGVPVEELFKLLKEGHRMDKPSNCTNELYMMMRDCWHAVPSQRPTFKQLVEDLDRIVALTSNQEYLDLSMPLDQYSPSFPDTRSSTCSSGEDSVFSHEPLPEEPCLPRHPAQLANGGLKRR
Sequence of CKD18 (Q07002 whole entry): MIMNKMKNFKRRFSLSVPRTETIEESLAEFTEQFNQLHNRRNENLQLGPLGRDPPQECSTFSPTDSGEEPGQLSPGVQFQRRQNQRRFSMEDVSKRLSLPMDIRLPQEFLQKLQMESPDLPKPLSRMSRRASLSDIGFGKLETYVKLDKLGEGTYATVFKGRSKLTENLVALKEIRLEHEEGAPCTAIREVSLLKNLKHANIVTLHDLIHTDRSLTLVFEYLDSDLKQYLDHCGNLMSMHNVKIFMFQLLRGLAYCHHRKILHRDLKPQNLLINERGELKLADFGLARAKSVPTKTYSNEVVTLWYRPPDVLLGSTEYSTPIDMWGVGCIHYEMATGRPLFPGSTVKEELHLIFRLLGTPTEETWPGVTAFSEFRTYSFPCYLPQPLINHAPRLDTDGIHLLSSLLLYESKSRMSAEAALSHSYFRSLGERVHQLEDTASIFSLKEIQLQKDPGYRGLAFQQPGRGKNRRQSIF
Sequence of CKD18 (Q8ND76 whole entry partner): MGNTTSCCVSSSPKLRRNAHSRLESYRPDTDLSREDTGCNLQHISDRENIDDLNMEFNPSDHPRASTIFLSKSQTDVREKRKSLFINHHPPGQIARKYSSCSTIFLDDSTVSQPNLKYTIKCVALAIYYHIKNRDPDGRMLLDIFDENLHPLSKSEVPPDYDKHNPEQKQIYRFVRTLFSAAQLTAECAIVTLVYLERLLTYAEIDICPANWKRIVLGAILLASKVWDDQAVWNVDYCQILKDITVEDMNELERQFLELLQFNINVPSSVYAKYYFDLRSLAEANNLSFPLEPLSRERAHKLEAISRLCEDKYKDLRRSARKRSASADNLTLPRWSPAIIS

In the case of “YARAAARQARASPAARRA(pS)AILPG (YARAAARQARASPAARRA[pS]AILPG) [NiPp, Cell-permeant phosphopeptide mimetic of Niban: transduction domain … conjugated to the region surrounding serine 602 of Niban]”, the “anisomycin-induced p38 MAPK phosphorylation relative to total p38 MAPK” value in the test on p38 MAPK phosphorylation is on record as “decreased; also recorded: reduced; also recorded: prevented”. In addition, the “% inhibition of p38 MAPK β isoform” value with p38 MAPK β isoform is 5%. Also, in the test with p38 MAPK γ isoform, the “% inhibition of p38 MAPK γ isoform” value is on record as 3%. In the test with PIK3R3 kinase, the “inhibition of PIK3R3 kinase” value is “inhibited”. In addition, in the test with CKD18, the “inhibition of CKD18” value was “inhibited”. Also, the “inhibition of FGFR1” value with FGFR1 is “inhibited”.
